Ends that are not written are not given here.
Target: PL^pro domain of SARS-CoV-2 nsp3 (E746-T1063) (SARS-CoV-2)

B1: K193-branched IRF3_(189-197)-ISG15 oligopeptide 4 (peptide)
chain 1: ENPLKRLLV-NH2
chain 2: LSTVFMNLRLRGG
modifications: also: lactam at chain A 5 at chain B 13 to a chain's C-terminus
**Q.** How did the PL^pro-catalysed isopeptide amide bond hydrolysis by SPE-MS, time course to ~240 min (0.2 uM PL^pro, 2.0 uM peptide, 50 mM Tris pH 8.0, ambient temperature) turn out when B1 was run?
**A.** Its PL^pro-catalysed isopeptide amide bond hydrolysis by SPE-MS, time course to ~240 min (0.2 uM PL^pro, 2.0 uM peptide, 50 mM Tris pH 8.0, ambient temperature) is 20%.
